Experimental data as given in PMC11761706.

Target: T1, Loz1AZZ (Schizosaccharomyces pombe, UniProt Q9UTA1 426-522)
T1 sequence: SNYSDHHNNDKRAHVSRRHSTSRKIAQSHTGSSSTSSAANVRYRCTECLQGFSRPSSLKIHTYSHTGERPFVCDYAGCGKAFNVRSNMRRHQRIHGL
Assay: NMR

B1: LRE DNA 14 bp (dsDNA)
DNA 1: GCGACGATCATTGG
DNA 2: CCAATGATCGTCGC
- binding result: binds
